Reference: the supplement of paper PMC9170038

Test system: MS2 coat protein
Experiment: apparent KD of MS2 coat protein; higher = weaker reporter binding
Settings: Eterna round: R107
Method in brief: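 Each design's apparent KD comes from the median of binding-curve fits to its normalised clusters. Those clusters carried RNA switches transcribed on-chip from Illumina sequencing clusters. SNAP-549-labelled MS2 coat protein was titrated onto them in twofold steps (0.7 or 1.5 nM to 3 µM; per step 0.8–1.5 h down to 10–20 min). Conditions were 100 mM Tris-HCl pH 7.5, 80 mM KCl, 4 mM MgCl2, without or with constant ligand.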

[1] = input ligand: theophylline 20 uM
[2] = input ligand: tryptophan 2.4 mM
[3] = input ligand: theophylline 2 mM

Sequence | apparent KD of MS2 coat protein (input ligand: arginine 13.2 mM) [nM] | apparent KD of MS2 coat protein [1] [nM] | apparent KD of MS2 coat protein [2] [nM] | apparent KD of MS2 coat protein (input ligand: none) [nM] | apparent KD of MS2 coat protein [3] [nM]
UUUACAUGAGGAUCACCCAUGUGCCAUGAUACCAGACAUGAAAAUGUCCCUUGGCAGCAUGAAAGAUCCACGUCGGAAACGACGG [Krpole] | 72.2 | 248 | 113 | – | –
GCACCAGGUACGGAUACCAGCUGCCAGCGUUACAUGAGGAUCACCCAUGUGAUCUGAUAUAGCCCUUGGCAGCUGUACCUGGUGC [SSThB NP+V+V2 #3 +-Same Structure] | 43.4 | 416 | 49.6 | – | –
ACAUGAGGGAUGGAUACCAGCGACAUGAGGAUCACCCAUGUAUGAGGAUCACCCAUGUUAUGCCCUUGGCAGCCACAAACAUGAG [UUYMULLIN] | 24.8 | 20 | 16.9 | 14.3 | 117
ACAUGAGGAUCACCCAUGUAGCCUAGGGAAGGAGCGGCGUAAGAGCCAGGUAGGUCGCCCGCAUGAGGAUCACCCAUGUCGAGGG [Same State Arginine A GF10] | 30.9 | 40.9 | 29.3 | 38 | 33.1
AUAACCCUUGACUAAAACACUAAAUCAGUUCGAGGACCGGUACGGCCGCCACUCGUGUCAAGACAUGAGGAUCACCCAUGUACCU [Isbe] | 32 | 45.4 | – | – | 44.3
AACAUGAGGAUCACCCAUGUAUUGGGUGAUACCAGCCUGAAUAAGGGCCCUUGGCAGCACCGCGCUAACUUUAUGUCUGCGAACC [Rebiercete] | 511 | 432 | 277 | 54.1 | 368
AUAAUAAUCAUGGGUGAAGGUCCUCGCAAACGAGGACCGGUACGGCCGCCACUCGAACAUGAGGAUCACCCAUGUGUGAGGACCU [M' - T' - T - MS2 - T'' Design 2] | 24.9 | 59.7 | – | – | 74.1
CGUGUGCGUUCUGAUACCAGAGACAUGAGGAUCACCCAUGUCCGAUCGUCCUGCCUCAGACUCCCUUGGCAGCAGGUUUUGUGCU [Exclusion Theophylline B GF4] | 29.5 | 56.7 | 50.2 | – | –
AGAGUCAGACAAAAGUCUGGCUCAGCCGAAGGAGCGUCCGAAAGGACAGGUAGGUCGCGGUUACUUGAGGAUCACCCAAGUUCCU [ArgAS 26 #OpenEnded #AlternativeMS2] | 69 | 151 | 144 | 163 | 177
CUCGAGUUAUGAGAUACCAGACUAUAGUUUACAUGAGGAUCACCCAUGUUAUGGGUGGUAGUCCCUUGGCAGCUCAUAUGUUUAA [#06 Exclusion-TheophyllineB] | 210 | 274 | 305 | – | –
UAAAACAUGAGGAUCACCCAUGUAAUUGAUACCAGAGUGAUGAUCCUCCCUUGGCAGCAAAUAACGCAUUGAUUACAAUGCGAAA [Mat - Same State Theophlline A - Mod of Eli - D27] | 27.9 | 105 | 35 | – | –
GAGUACACUACGGCCGCCACUCAAGGAGCUACAUAGCUCCUAGACAUGAGGAUCACCCAUGUACCGAGGACCGGGUAGAUCCUUA [Same State Typrtophan B GF2] | 129 | 246 | – | – | 294
ACAUGAGGAUCACCCAUGUAAUUGCCGGAAGGAGCGUCAUUAAGGACAGGUAGGUCGCUGGUAGGGUCGUCGGUUACGGCGGCCA [SSArg A #10] | 13.3 | 16.8 | 13.7 | 11.1 | 13
UGAAAGUAGGGAAGGAGCGCUACAACAUGAGGAUCACCCAUGUUAUGAGGAUCACCCAUGUGGCAGGUAGGUCGCCCAAAACAUG [Same State Arginine B] | 41.3 | 95.1 | 68 | 77 | 92.7
UAAACUACACAUGAGGAUCACCCAUGUGGCCGAGGACCGGUACGGCCGCCACUCGUGUGUUAAUAAUAGAACUGCAAGGUUCUGU [Enindidiso] | 75.6 | 228 | – | – | 272
UUUUAGCAUCGAAGGAGCGCUGGUAGGUGACACAUGAGGAUCACCCAUGUGCUCCUUGCCGAGCAGGUAGGUCGCGAUGCUAUUU [SSAB NP+V+V2 #8] | 31.4 | 62.9 | 46.2 | 52.6 | 73.3
ACCCUAGCGAUCGCUCGCUAGGGUGCGGAUACCAGCGAGGUCCAUCGCCCUUGGCAGCCGAACAUGAGGAUCACCCAUGUCGGUA [#1 Same State - Theophylline A Attempt #19 (HarryS)] | 10.1 | 11.6 | 10.4 | – | –
AUACAUGAGGAUCACCCAUGUCUUACGGAAGGAGCGAUCAAGAGAUCAGGUAGGUCGCCGUACAUGAGGAUCACCCAUGUAGGCG [EAA NP+V+V2 #9 DOUBLE] | 19.5 | 33.4 | 31.3 | 32.3 | 35.7
AGAAUAUAAUAUAUCAAAGGUAUAACCGAAGGAGCGCCGAAUAAGGCAGGUAGGUCGCGGAAACAUGAGGAUCACCCAUGUCCAU [Arginine A Same State; Euphoria Solution 2] | 19 | 23.6 | 18.7 | 19.1 | 16.6

Sequence | apparent KD of MS2 coat protein (input ligand: arginine 13.2 mM) [nM] | apparent KD of MS2 coat protein [1] [nM] | apparent KD of MS2 coat protein [2] [nM] | apparent KD of MS2 coat protein (input ligand: none) [nM] | apparent KD of MS2 coat protein [3] [nM]
AUGUCAUUGGUGUAGCUGUGAAAUGGCGAUACCAGCGUGGAAACACGCCCUUGGCAGCGCCAAAACAUGAGGAUCACCCAUGUUA [Pardubice] | 36.2 | 135 | 80 | – | –
GGAGUAGAUGCGGCCGCCACUUUCUCAAGACACUACAUGAGGAUCACCCAUGUCCAUUCUACACUAAGGACCGGGCAUCCCAUGG [Alaa] | 36.8 | 182 | – | – | 192
AGUUACUCGAACAUGGUUGACGAGUGGCAACGAGGACCGGUACGGCCGCCACUCGAAUAAACAUGAGGAUCACCCAUGUACAAAU [T''-M'-T'-T-MS2 - Design 10.b] | 61.9 | 148 | – | – | 160
AAAAGAGGUGGAAGGAGCGGGAGACAUGAGGAUCACCCAUGUGAAGUGACGAAAGGAUCAUCCCAGGUAGGUCGCCAUGUCGAAA [csstmullin] | 5.43 | 44.6 | 21.7 | 147 | 39
AUUAAUAAUAUGUAGACGGCGGAGAAGAGACGAGGACCGGUACGGCCGCCACUCGUGUUAGUUAACAUGAGGAUCACCCAUGUUA [#09 Tryptophan A Same State] | 9.55 | 17.5 | 11.9 | 11.8 | 12.6
UUAUAAGUACCGGUCCUCAGAUCCUCAUGACGAGGACCGGUACGGCCGCCACUCGAAACAUGAGGAUCACCCAUGUAAUAAUAUU [Brourdmod07] | 16 | 25.3 | – | – | 23.3
ACCUGCGUUUGUUUCUUUCUGACGCAGGUUCGAGGACCGGUACGGCCGCCACUCGGACAUGAGGAUCACCCAUGUUUGAAAUGGG [#01 Exclusion Tryptophan A] | 90.4 | 248 | – | – | 313
GCACCAGGUACGGAUACCAGCUAUAGGCCCUAUGGGCGACAUGAGGAUCACCCAUGUAAUGGCCCUUGGCAGCUGUACCUGGUGC [SSThB NP+V+V2 #10 +-Same Structure] | 120 | 97.3 | 169 | – | –
CUAUUUAUAGCGGCCGCCACUUACUCAUGAGGUAACAACAUGAGGAUCACCCAUGUUUGAGGAUCAAGGACCGGGCUAUGGAUAG [AstrosSSTryB#12] | 24.5 | 37 | – | – | 31.5
GGAUAGGACACGGCCGCCACUAGCUAGGAUACUAGCAACAUUUGGGUACAUGAGGAUCACCCAUGUAGGACCGGGUGUCCUAUCG | 64.4 | 117 | 107 | 63.7 | 85.5
UACAUGAGGAUCACCCAUGUAUUGCCGGUACGAGGACCGGUACGGCCGCCACUCGGAGCAUGAGGAUCACCCAUGUGCUGCUAUG [Same State Trypophan A GF 24] | 35.5 | 67.1 | – | – | 83.7
UGUAUGUGAUCUGAUACCAGAGUGAAUAACCUGAGGAUCACCCUGGUAAGGCGAAAGCCACUCCCUUGGCAGCAGAUCGCAUACU | 121 | 100 | 136 | 136 | 26.6
CUCCGAGGCUAUACUAUACGCCUUUGUGAUACCAGAAUAAAUAUAUUCCCUUGGCAGCAUCACAUGAGGAUCACCCAUGUGCCAU [SSTheo A #12] | 15.7 | 27.7 | 12.4 | – | –
UGACAUUGCUCAGAUACCAGACAUGAGGAUCACCCAUGUACCAAGGUAAAGAAAUAACGUGUCCCUUGGCAGCUGAGCAAUGUCU [TheoBX 1 #MS2Left #Theo2] | 10.6 | 14.8 | 10.4 | – | –
CAAUACGUAACUGAUACCAGUGUACUGACAUGAGGAUCACCCAUGUUGGGUUUUGUUGUACACCCUUGGCAGCAGAAUCGUAUUG [AstrosExyTheB#11] | 46.7 | 79.4 | 66.3 | – | –
GCUGCCAUACGAAGGAGCGCUGGUGUAAUGAGGCGAACAUGAGGAUCACCCAUGUGGCAGAAGCAGGUAGGUCGCGUAUGGCAGC [EAB #15] | 12.9 | 20.6 | 18.3 | 14.2 | 14.9
CCUUUUAUUAAUGAUACCAGCGUAUUAAGCAUCACCUUGGACAUGAGGAUCACCCAUGUACGCCCUUGGCAGCAUACCACUGGGU [theeternabot_exclusion_MS2_Theo_B_5] | 35.7 | 52.2 | 34.7 | – | –
UAAUAAAUAAAUCCAAGGUGAAGGUCAGAUACCAGCCAGAUAACUGGCCCUUGGCAGCUGAAUAAGCUUGAGGAUCACCCAAGUA [TheoAS 26 #OpenEnded #MS2Late #AlternativeMS2] | 27.5 | 68.4 | 32.8 | – | 275
